{"source": "paper doi:10.1101/2023.09.14.557805", "about": "“Determinants of DDX3X sensitivity uncovered using a helicase activity in translation reporter” (bioRxiv, 2023)", "target": "T1, S. cerevisiae eIF4E (S. cerevisiae, UniProt P07260 1-213)", "T1 construct": "eIF4E of S. cerevisiae; 15N isotope labelled; m7GTP added to 250 μM in the NMR sample; source: E. coli BL21-star, purified (nickel resin, TEV cleavage, m7G cap resin)", "T1 sequence (looked up)": "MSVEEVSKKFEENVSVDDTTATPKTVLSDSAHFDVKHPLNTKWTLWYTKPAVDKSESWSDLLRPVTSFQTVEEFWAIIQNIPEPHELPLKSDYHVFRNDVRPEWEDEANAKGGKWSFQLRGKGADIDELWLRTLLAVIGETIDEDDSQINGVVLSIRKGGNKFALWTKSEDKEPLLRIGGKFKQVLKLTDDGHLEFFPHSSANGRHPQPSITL", "test": "NMR titration; 15N HSQC of 200 μM 15N eIF4E with 250 μM m7GTP, peptide added to 1 mM; 50 mM phosphate pH 6.5, 50 mM KCl, 10% D2O, 298 K, 900 MHz", "settings": "both partners purified"}
{"binder": "RIIYDRKFLMECRNSPV (4E-BP1, human, amino acids 51–67; Dissolved at 50 mM in DMSO; source: synthetic peptide (Elim Bio))", "note": "[4E-BP1 peptide (human 4E-BP1 amino acids 51–67)]", "values": [{"measurement": "binding result", "value": "binds"}]}
